Results published in PMC4187570, “Clathrin complexes with the inhibitor kappa B kinase signalosome: imaging the interactome” (Physiological Reports, 2014).

B1: clathrin heavy chain 1 (natural protein, human (endogenous in A549), UniProt Q00610 1-1675, looked up)
chain: MAQILPIRFQEHLQLQNLGINPANIGFSTLTMESDKFICIREKVGEQAQVVIIDMNDPSNPIRRPISADSAIMNPASKVIALKAGKTLQIFNIEMKSKMKAHTMTDDVTFWKWISLNTVALVTDNAVYHWSMEGESQPVKMFDRHSSLAGCQIINYRTDAKQKWLLLTGISAQQNRVVGAMQLYSVDRKVSQPIEGHAASFAQFKMEGNAEESTLFCFAVRGQAGGKLHIIEVGTPPTGNQPFPKKAVDVFFPPEAQNDFPVAMQISEKHDVVFLITKYGYIHLYDLETGTCIYMNRISGETIFVTAPHEATAGIIGVNRKGQVLSVCVEEENIIPYITNVLQNPDLALRMAVRNNLAGAEELFARKFNALFAQGNYSEAAKVAANAPKGILRTPDTIRRFQSVPAQPGQTSPLLQYFGILLDQGQLNKYESLELCRPVLQQGRKQLLEKWLKEDKLECSEELGDLVKSVDPTLALSVYLRANVPNKVIQCFAETGQVQKIVLYAKKVGYTPDWIFLLRNVMRISPDQGQQFAQMLVQDEEPLADITQIVDVFMEYNLIQQCTAFLLDALKNNRPSEGPLQTRLLEMNLMHAPQVADAILGNQMFTHYDRAHIAQLCEKAGLLQRALEHFTDLYDIKRAVVHTHLLNPEWLVNYFGSLSVEDSLECLRAMLSANIRQNLQICVQVASKYHEQLSTQSLIELFESFKSFEGLFYFLGSIVNFSQDPDVHFKYIQAACKTGQIKEVERICRESNCYDPERVKNFLKEAKLTDQLPLIIVCDRFDFVHDLVLYLYRNNLQKYIEIYVQKVNPSRLPVVIGGLLDVDCSEDVIKNLILVVRGQFSTDELVAEVEKRNRLKLLLPWLEARIHEGCEEPATHNALAKIYIDSNNNPERFLRENPYYDSRVVGKYCEKRDPHLACVAYERGQCDLELINVCNENSLFKSLSRYLVRRKDPELWGSVLLESNPYRRPLIDQVVQTALSETQDPEEVSVTVKAFMTADLPNELIELLEKIVLDNSVFSEHRNLQNLLILTAIKADRTRVMEYINRLDNYDAPDIANIAISNELFEEAFAIFRKFDVNTSAVQVLIEHIGNLDRAYEFAERCNEPAVWSQLAKAQLQKGMVKEAIDSYIKADDPSSYMEVVQAANTSGNWEELVKYLQMARKKARESYVETELIFALAKTNRLAELEEFINGPNNAHIQQVGDRCYDEKMYDAAKLLYNNVSNFGRLASTLVHLGEYQAAVDGARKANSTRTWKEVCFACVDGKEFRLAQMCGLHIVVHADELEELINYYQDRGYFEELITMLEAALGLERAHMGMFTELAILYSKFKPQKMREHLELFWSRVNIPKVLRAAEQAHLWAELVFLYDKYEEYDNAIITMMNHPTDAWKEGQFKDIITKVANVELYYRAIQFYLEFKPLLLNDLLMVLSPRLDHTRAVNYFSKVKQLPLVKPYLRSVQNHNNKSVNESLNNLFITEEDYQALRTSIDAYDNFDNISLAQRLEKHELIEFRRIAAYLFKGNNRWKQSVELCKKDSLYKDAMQYASESKDTELAEELLQWFLQEEKRECFGACLFTCYDLLRPDVVLETAWRHNIMDFAMPYFIQVMKEYLTKVDKLDASESLRKEEEQATETQPIVYGQPQLMLTAGPSVAVPPQAPFGYGYTAPPYGQPQPGFGYSM
notes: clathrin heavy chain 1 (CLTC), human, SwissProt entry name CLH1_HUMAN; also called CHC; CLH1; source: endogenous, A549 cells (M-PER lysate for the pull-down; fixed, permeabilised cells for FRET)
B2: IKKβ (natural protein, human (endogenous in A549), UniProt O14920 1-756, looked up)
chain: MSWSPSLTTQTCGAWEMKERLGTGGFGNVIRWHNQETGEQIAIKQCRQELSPRNRERWCLEIQIMRRLTHPNVVAARDVPEGMQNLAPNDLPLLAMEYCQGGDLRKYLNQFENCCGLREGAILTLLSDIASALRYLHENRIIHRDLKPENIVLQQGEQRLIHKIIDLGYAKELDQGSLCTSFVGTLQYLAPELLEQQKYTVTVDYWSFGTLAFECITGFRPFLPNWQPVQWHSKVRQKSEVDIVVSEDLNGTVKFSSSLPYPNNLNSVLAERLEKWLQLMLMWHPRQRGTDPTYGPNGCFKALDDILNLKLVHILNMVTGTIHTYPVTEDESLQSLKARIQQDTGIPEEDQELLQEAGLALIPDKPATQCISDGKLNEGHTLDMDLVFLFDNSKITYETQISPRPQPESVSCILQEPKRNLAFFQLRKVWGQVWHSIQTLKEDCNRLQQGQRAAMMNLLRNNSCLSKMKNSMASMSQQLKAKLDFFKTSIQIDLEKYSEQTEFGITSDKLLLAWREMEQAVELCGRENEVKLLVERMMALQTDIVDLQRSPMGRKQGGTLDDLEEQARELYRRLREKPRDQRTEGDSQEMVRLLLQAIQSFEKKVRVIYTQLSKTVVCKQKALELLPKVEEVVSLMNEDEKTVVRLQEKRQKELWNLLKIACSKVRGPVSGSPDSMNASRLSQPGQLMSQPSTASNSLPEPAKKSEELVAEAHNLCTLLENAIQDTVREQDQSFTALDWSWLQTEEEEHSCLEQAS
notes: also called IKBKB; source: endogenous, A549 cells (M-PER lysate for the pull-down; fixed, permeabilised cells for FRET)

Tests used:
Test in all cases: FRET or BRET; corrected FRET between fluorophore-labelled secondary antibodies (Alexa 488:Cy3, Cy3:Cy5) on primary antibodies, indirect immunofluorescence of acetone/methanol-fixed resting A549 cells, deconvolved Z-stacks; epitopes within about 30 nm; FRETN = cFRET normalised to the acceptor's emission, mean of four sets of experiments
[1] = target: IKKα (human (endogenous in A549)) (UniProt O15111)
[2] = target: IKKβ (human (endogenous in A549)) (UniProt O14920)
[3] = target: B2; details: partners not purified
[4] = target: T1, IKKα (human (endogenous in A549), UniProt O15111 1-745); details: partners not purified
T1 construct: also called CHUK; source: endogenous, A549 cells (M-PER lysate for the pull-down; fixed, permeabilised cells for FRET)
T1 sequence (looked up): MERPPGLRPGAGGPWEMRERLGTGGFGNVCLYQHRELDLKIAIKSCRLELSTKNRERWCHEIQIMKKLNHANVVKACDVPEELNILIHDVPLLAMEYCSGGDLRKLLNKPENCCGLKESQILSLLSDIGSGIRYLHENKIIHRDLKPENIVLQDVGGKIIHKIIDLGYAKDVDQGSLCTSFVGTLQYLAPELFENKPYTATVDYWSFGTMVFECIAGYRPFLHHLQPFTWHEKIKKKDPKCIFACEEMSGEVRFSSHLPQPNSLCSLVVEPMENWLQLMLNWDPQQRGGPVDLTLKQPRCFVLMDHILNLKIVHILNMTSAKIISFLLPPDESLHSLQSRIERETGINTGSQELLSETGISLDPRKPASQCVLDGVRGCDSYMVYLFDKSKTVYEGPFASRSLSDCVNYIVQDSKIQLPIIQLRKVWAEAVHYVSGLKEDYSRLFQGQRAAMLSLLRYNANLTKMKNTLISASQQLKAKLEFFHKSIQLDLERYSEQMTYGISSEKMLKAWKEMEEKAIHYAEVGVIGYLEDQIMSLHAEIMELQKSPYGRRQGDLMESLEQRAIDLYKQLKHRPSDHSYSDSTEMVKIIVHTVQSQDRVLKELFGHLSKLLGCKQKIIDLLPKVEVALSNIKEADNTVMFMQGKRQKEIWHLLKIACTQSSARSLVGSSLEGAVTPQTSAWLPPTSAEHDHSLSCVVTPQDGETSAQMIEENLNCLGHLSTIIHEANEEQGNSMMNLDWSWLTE

heat-shock protein-90 (from UniProt P07900 1-732) (natural protein)
normalized FRET (FRETN) [1]: 0.3
normalized FRET (FRETN) [2]: 0.632

B1
normalized FRET (FRETN) [3]: 0.522
normalized FRET (FRETN) [4]: 0.7

B2
normalized FRET (FRETN) [4]: 0.362
